US20240059759A1 (BIGHAT BIOSCIENCES, published 2024)

Tests used:
[1] = biological target: T1, SARS-CoV-1 RBD (SARS-CoV-1, UniProt P59594 306-527)
[2] = biological target: T1, SARS-CoV-1 RBD; remark: listed apart in the source

Row | Binder | Rel. EC50 - ELISA [1] | EC50 [2] [µg/mL]
1 | VHH-72(S57G) (VHH) VHH: QVQLQESGGGLVQAGGSLRLSCAASGRTFSEYAMGWFRQAPGKEREFVATISWSGGGTYYTDSVKGRFTISRDNAKNTVYLQMNSLKPDDTAVYYCAAAGLGTVVSEWDYDYDYWGQGTQVTVSS | 0.3 relative to WT | –
2 | VHH-72 (S57A) (VHH) VHH: QVQLQESGGGLVQAGGSLRLSCAASGRTFSEYAMGWFRQAPGKEREFVATISWSGGATYYTDSVKGRFTISRDNAKNTVYLQMNSLKPDDTAVYYCAAAGLGTVVSEWDYDYDYWGQGTQVTVSS | 0.43 relative to WT | –
3 | VHH-72 (S57Y) (VHH) VHH: QVQLQESGGGLVQAGGSLRLSCAASGRTFSEYAMGWFRQAPGKEREFVATISWSGGYTYYTDSVKGRFTISRDNAKNTVYLQMNSLKPDDTAVYYCAAAGLGTVVSEWDYDYDYWGQGTQVTVSS | – | > 10
